In assay [1] the target is T1, human 4-1BB (CD137), cell-surface-expressed on Jurkat-hu4-1BB-NFkB-luc2 reporter cell line (human, UniProt Q07011 24-186). The assay is described as follows: cell-based or functional assay.
For assay [2], the target named is T2, human Fibroblast Activation Protein (FAP), cell-surface-expressed on NIH/3T3-huFAP clone 19 cells (human, UniProt Q12884 1-760).
T2 construct: also called FAP-expressing cells
Briefly: flow cytometry, NIH/3T3-huFAP clone 19 cells, PE anti-human Fc detection. A general note: A flow cytometer gives signals particle by particle.
Procedure: (§1) Plates were incubated for 30 minutes at 4° C. and washed once with 200 μL, 4° C. cold DPBS buffer. […] Cells were washed twice with 200 μL 4° C. DPBS buffer and then resuspended in 50 μL/well DPBS containing 1% Formaldehyde for fixation. The same or the next day cells were resuspended in 100 μL FACS-buffer and acquired using MACSQuant Analyzer 10 (Miltenyi Biotec) or Canto II (BD).

The target in assay [3] is T2, human Fibroblast Activation Protein …. Briefly: flow cytometry, NIH/3T3-huFAP clone 19 cells, gMFI curve.
Procedure: as §1
For assay [4], the target named is T1, human 4-1BB (CD137), …. Briefly: flow cytometry, Jurkat-hu4-1BB-NFkB-luc2 cells, gMFI curve.
Procedure: (§2) For binding to cell-surface-expressed human 4-1BB (CD137) Jurkat-hu4-1BB-NFκB-luc2 reporter cell line (Promega, Germany) was used. […] Plates were incubated for 30 minutes at 4° C. and washed once with 200 μL 4° C. cold DPBS buffer. […] Cells were washed twice with 200 μL 4° C. FACS buffer and then resuspended in 50 μL/well DPBS containing 1% Formaldehyde for fixation. The same or the next day cells were resuspended in 100 μL FACS-buffer and acquired using MACSQuant Analyzer 10 (Miltenyi Biotec) or Cantoll (BD).
In assay [5] the target is T1, human 4-1BB (CD137), …. Briefly: cell-based or functional assay. Set-up: AUC of activation curve, NFκB-luciferase in Jurkat-hu4-1BB-NFκB-luc2, crosslinking by WM-266-4 cells: unit not given beside the values.
Assay [6] addresses T1, human 4-1BB (CD137), …. The assay is described as follows: flow cytometry, Jurkat-hu4-1BB-NFkB-luc2 cells, PE anti-human Fc detection.
Procedure: as §2
The target in assay [7] is T1, human 4-1BB (CD137), …. The assay is described as follows: flow cytometry, Jurkat-hu4-1BB-NFkB-luc2 cells, gMFI curve. This is another data set of the same source.
Procedure: (§3) For binding to cell-surface-expressed human 4-1BB (CD137) Jurkat-hu4-1BB-NFkB-luc2 reporter cell line (Promega, Germany) was used. […] Plates were incubated for 30 minutes at 4° C. and washed once with 200 μL 4° C. cold DPBS buffer. […] Cells were washed twice with 200 μL 4° C. FACS buffer and then resuspended in 50 DPBS containing 1% Formaldehyde for fixation.
Assay [8] concerns the target T1, human 4-1BB (CD137), …. The assay is described as follows: flow cytometry, Jurkat-hu4-1BB-NFkB-luc2 cells, PE anti-human Fc detection. The source holds these as a separate data set.
Procedure: as §3
For assay [9], the target named is T1, human 4-1BB (CD137), …. The assay is described as follows: cell-based or functional assay. Set-up: unit not given beside the values.
Assay [10] addresses T1, human 4-1BB (CD137), …. The assay is described as follows: cell-based or functional assay. The source holds these as a separate data set.

Read-outs that look alike come from different tables or passages of the source.

As a reminder, the EC50 is the midpoint of the concentration-response curve.

B1: bispecific, monovalent 1+2 anti-FAP, anti-4-1BB lipocalin huIgG1 PGLALA antigen binding molecule (bispecific antibody)
heavy 1: DKTHTCPPCPAPEAAGGPSVFLFPPKPKDTLMISRTPEVTCVVVDVSHEDPEVKFNWYVDGVEVHNAKTKPREEQYNSTYRVVSVLTVLHQDWLNGKEYKCKVSNKALGAPIEKTISKAKGQPREPQVCTLPPSRDELTKNQVSLSCAVKGFYPSDIAVEWESNGQPENNYKTTPPVLDSDGSFFLVSKLTVDKSRWQQGNVFSCSVMHEALHNHYTQKSLSLSPGGGGGSGGGGSGGGGSQDSTSDLIPAPPLSKVPLQQNFQDNQFHGKWYVVGQAGNIRLREDKDPIKMMATIYELKEDKSYDVTMVKFDDKKCMYDIWTFVPGSQPGEFTLGKIKSFPGHTSSLVRVVSTNYNQHAMVFFKFVFQNREEFYITLYGRTKELTSELKENFIRFSKSLGLPENHIVFPVPIDQCIDG
heavy 2: not shown
light: EIVLTQSPGTLSLSPGERATLSCRASQSVTSSYLAWYQQKPGQAPRLLINVGSRRATGIPDRFSGSGSGTDFTLTISRLEPEDFAVYYCQQGIMLPPTFGQGTKVEIKRTVAAPSVFIFPPSDEQLKSGTASVVCLLNNFYPREAKVQWKVDNALQSGNSQESVTEQDSKDSTYSLSSTLTLSKADYEKHKVYACEVTHQGLSSPVTKSFNRGEC
notes: also called FAP (4B9) x 4-1BB lipocalin huIgG1 PG LALA 1+2; 1+2 FAP(4B9) x 4-1BB lipocalin huIgG1 PGLALA
For the molecule B1, in assay [1], the “EC50 of activation curve, NFκB-luciferase in Jurkat-hu4-1BB-NFκB-luc2, crosslinking by NIH/3T3-huFAP clone 19 cells” value (“EC50 … by NIH/3T3-huFAP clone 19 cells” below) was determined as 0.02 nM and the “EC50 of activation curve, NFκB-luciferase in Jurkat-hu4-1BB-NFκB-luc2, crosslinking by WM-266-4 cells” value (“EC50 of activation curve … by WM-266-4 cells” below) was 0.07 nM. In addition, the midpoint of the response in [2], the EC50, lay at 2.88 nM. In addition, the “Area under the curve (AUC) of binding curve” value (from here on “Area under the curve (AUC)”) in assay [3] turned out to be 32500. The “Area under the curve (AUC)” value in [4] amounted to 681. In assay [5], the “AUC of activation curve, NFκB-luciferase in Jurkat-hu4-1BB-NFκB-luc2, crosslinking by NIH/3T3-huFAP clone 19 cells” value (“AUC … by NIH/3T3-huFAP clone 19 cells” for short) turned out to be 93200 and the “AUC of activation curve, NFκB-luciferase in Jurkat-hu4-1BB-NFκB-luc2, crosslinking by WM-266-4 cells” value (from here on “AUC of activation curve … by WM-266-4 cells”) turned out to be 37400. In [6], this molecule yielded a half-maximal effective concentration (EC50) of 2.39 nM.

B2: bispecific, monovalent 1+2 anti-HER2, anti-4-1BB lipocalin huIgG1 PGLALA antigen binding molecule (bispecific antibody)
heavy 1: B1 heavy 1
heavy 2: not shown
light: not shown
notes: also called HER2 (TRAS) x 4-1BB lipocalin huIgG1 PG LALA 1+2; 1+2 HER2 x 4-1BB lipocalin huIgG1 PGLALA
In the case of B2, in [7], the “Area under the curve (AUC)” value came to 2100. The molecule also showed an EC50 in assay [8] of 6.95 nM. Further, in [9], the “AUC of activation curve, NFκB-luciferase in Jurkat-hu4-1BB-NFκB-luc2, crosslinking by KPL4 cells” value worked out at 11400; the “AUC of activation curve, NFκB-luciferase in Jurkat-hu4-1BB-NFκB-luc2, crosslinking by NCI-N87 cells” value is 12100; the “AUC of activation curve, NFκB-luciferase in Jurkat-hu4-1BB-NFκB-luc2, crosslinking by SK-Br3 cells” value was determined as 3960. In assay [10], the “EC50 of activation curve, NFκB-luciferase in Jurkat-hu4-1BB-NFκB-luc2, crosslinking by KPL4 cells” value worked out at 0.19 nM; the “EC50 of activation curve, NFκB-luciferase in Jurkat-hu4-1BB-NFκB-luc2, crosslinking by NCI-N87 cells” value was determined as 0.15 nM; the “EC50 of activation curve, NFκB-luciferase in Jurkat-hu4-1BB-NFκB-luc2, crosslinking by SK-Br3 cells” value turned out to be 0.33 nM.

B3: 2+2 FAP(4B9) x 4-1BB lipocalin huIgG4 SP molecule (bispecific antibody)
heavy: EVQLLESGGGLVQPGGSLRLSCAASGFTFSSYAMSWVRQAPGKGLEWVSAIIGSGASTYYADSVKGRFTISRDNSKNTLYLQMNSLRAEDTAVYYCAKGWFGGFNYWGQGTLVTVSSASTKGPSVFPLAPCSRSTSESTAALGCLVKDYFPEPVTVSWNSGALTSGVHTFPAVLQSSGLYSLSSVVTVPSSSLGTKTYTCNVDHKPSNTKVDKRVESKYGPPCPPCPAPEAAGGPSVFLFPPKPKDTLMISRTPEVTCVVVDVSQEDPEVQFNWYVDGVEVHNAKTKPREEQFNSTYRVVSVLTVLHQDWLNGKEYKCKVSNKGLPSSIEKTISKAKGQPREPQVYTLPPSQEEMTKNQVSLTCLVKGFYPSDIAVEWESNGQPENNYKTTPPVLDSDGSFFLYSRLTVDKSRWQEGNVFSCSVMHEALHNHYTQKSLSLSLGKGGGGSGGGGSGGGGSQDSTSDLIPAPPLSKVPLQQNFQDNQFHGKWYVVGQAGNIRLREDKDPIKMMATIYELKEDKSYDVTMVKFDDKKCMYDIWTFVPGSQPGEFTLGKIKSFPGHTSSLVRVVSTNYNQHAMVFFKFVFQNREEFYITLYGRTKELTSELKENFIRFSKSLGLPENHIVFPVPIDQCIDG
light: B1 light
notes: Comparison molecule; also called FAP (4B9) x 4-1BB lipocalin huIgG4 SP 2+2; FAP (4B9) anti-4-1BB lipocalin huIgG4 SP 2+2
In the case of B3, in [1], the “EC50 … by NIH/3T3-huFAP clone 19 cells” value amounted to 0.12 nM and the “EC50 of activation curve … by WM-266-4 cells” value came to 0.02 nM. For the same molecule, in assay [2], the EC50 amounted to 1.19 nM. In addition, the “Area under the curve (AUC)” value in assay [3] stood at 21000. For the same molecule, in assay [4], the “Area under the curve (AUC)” value was 694. Also, in assay [5], the “AUC … by NIH/3T3-huFAP clone 19 cells” value came out at 55200 and the “AUC of activation curve … by WM-266-4 cells” value is 11700. Further, the EC50 in assay [6] was found to be 1.72 nM.

B4: bispecific, bivalent 2+2 anti-FAP, anti-4-1BB lipocalin huIgG1 PGLALA antigen binding molecule (bispecific antibody)
heavy: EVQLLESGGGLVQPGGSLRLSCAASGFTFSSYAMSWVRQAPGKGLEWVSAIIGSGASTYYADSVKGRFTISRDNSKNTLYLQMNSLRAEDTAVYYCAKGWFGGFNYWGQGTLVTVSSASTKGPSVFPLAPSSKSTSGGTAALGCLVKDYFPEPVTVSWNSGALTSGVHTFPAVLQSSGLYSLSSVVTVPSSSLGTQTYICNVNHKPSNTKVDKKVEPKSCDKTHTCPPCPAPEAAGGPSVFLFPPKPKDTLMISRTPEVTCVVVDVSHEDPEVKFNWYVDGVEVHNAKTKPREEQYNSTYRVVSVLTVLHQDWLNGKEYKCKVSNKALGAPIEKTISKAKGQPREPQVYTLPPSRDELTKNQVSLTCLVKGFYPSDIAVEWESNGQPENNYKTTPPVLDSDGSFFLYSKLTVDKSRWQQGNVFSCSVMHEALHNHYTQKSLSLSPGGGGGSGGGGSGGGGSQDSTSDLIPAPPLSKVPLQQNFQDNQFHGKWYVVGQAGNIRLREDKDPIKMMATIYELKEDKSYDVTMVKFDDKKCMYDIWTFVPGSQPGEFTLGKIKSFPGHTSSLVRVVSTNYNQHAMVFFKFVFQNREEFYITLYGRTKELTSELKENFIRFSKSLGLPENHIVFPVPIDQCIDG
light: B1 light
notes: also called FAP (4B9) x 4-1BB lipocalin huIgG1 PG LALA 2+2; 2+2 FAP(4B9) x 4-1BB lipocalin huIgG1 PGLALA
For B4, the “EC50 … by NIH/3T3-huFAP clone 19 cells” value in assay [1] worked out at 0.04 nM. Besides, the “EC50 of activation curve … by WM-266-4 cells” value in assay [1] was 0.02 nM. In addition, the values for the EC50 in [2] and in assay [6] were 2.01 nM and 2.09 nM, respectively. The “Area under the curve (AUC)” value was determined as 28800 in [3] and 746 in assay [4]. The “AUC … by NIH/3T3-huFAP clone 19 cells” value in assay [5] came to 65500. In assay [5], the “AUC of activation curve … by WM-266-4 cells” value worked out at 20400.

B5: FAP (4B9) huIgG1 PG LALA antibody (antibody, V domains shown)
VH: EVQLLESGGGLVQPGGSLRLSCAASGFTFSSYAMSWVRQAPGKGLEWVSAIIGSGASTYYADSVKGRFTISRDNSKNTLYLQMNSLRAEDTAVYYCAKGWFGGFNYWGQGTLVTVSS
VL: EIVLTQSPGTLSLSPGERATLSCRASQSVTSSYLAWYQQKPGQAPRLLINVGSRRATGIPDRFSGSGSGTDFTLTISRLEPEDFAVYYCQQGIMLPPTFGQGTKVEIK
notes: the control is a human IgG1 with P329G, L234A, L235A (PG LALA)
For the molecule B5, in assay [2], it took 1.59 nM to reach a half-maximal effect (EC50). The entries for the “Area under the curve (AUC)” value in [3] and in [4] were 30400 and 75, respectively. In addition, the “AUC … by NIH/3T3-huFAP clone 19 cells” value in assay [5] was 521. In addition, the “AUC of activation curve … by WM-266-4 cells” value in [5] was determined as 384.
